According to PMC9409239:

Biological target: N-terminally His-tagged recombinant ribosomal protein S1 of E. coli (from plasmid p16rpsAHis) (E. coli) (UniProt P0AG67)
Assay: native gel or EMSA; constant molar amount of S1 mixed with increasing RIII (RIII:S1 0.1:1 to 5:1), 10 min at room temperature, proteins dialysed against 50 mM sodium phosphate pH 7.4, 100 mM NaCl; native 14% PAGE, Coomassie

With “N-terminally 6His-tagged RIII protein of the T4 phage (from plasmid p21drIIIHis) (natural protein)” the stoichiometry N (RIII:S1 molar ratio) was 1.
